This test concerns the target T1, Feline FcRn (complex of FcRn-α subunit and β-microglobulin, C-terminal His tag) (feline, UniProt A0ABI7ZNY9 23-296; Q5MGS7 21-118).
T1 construct: treated here as one molecule
As to the kind of experiment: SPR Biacore, biotin-FcRn on SA chip, pH 6. Here is the method:
Feline FcRn was isolated, prepared and mutant Fc IgGs were assayed against feline FcRn according to Strietzel et. al., discussed above. Standard PCR was used to amplify feline FcRn-α subunit and β-microglobulin. FcRn-α subunit and β-microglobulin were co-transfected into HEK 293 cells and the FcRn complex was purified by IMAC affinity purification via the c-terminal His tag. FcRn complex was biotin labeled through BirA enzymatic biotinylatoin reaction. KD's were measured by Biacore T200 (GE Healthcare, Pittsburgh, PA, USA) or Biacore 8K (Cytiva, Marlborough, MA, USA) using a SA sensor chip.
FcRn was captured on the surface of the sensor using a modified SA capture method. 10 mM MES; 150 mM NaCl; 0.005% Tween20; 0.5 mg/mL BSA; pH6 was used as capture, method running buffer and titrations. 1×HBS-P, 0.5 mg/mL BSA; pH7.4 was also used for method running buffer and titrations. Fc mutant IgGs were flowed over receptor surfaces and affinity was determined using T200 evaluation software or Biacore Insight Evaluation software. Blank runs containing buffer only were subtracted out from all runs. Flow cells were regenerated using 50 mM Tris pH8 or pH9. Runs were performed at 15° C.

Substitutions are numbered along the chain they refer to. Names may count otherwise.

B1: mAb3 (felinized anti-NGF antibody ZTS-768) S428A, feline IgG1a (antibody)
heavy: DVQLVESGGDLVKPGGSLRLTCVASGFTYSNYWMHWVRQAPGKGLQWVARIDPYGGGTKHNEKFKRRFTISRDNAKNTLYLQMNSLKTEDTATYYCVRSGYDYYFDVWGQGTLVTVSSASTTAPSVFPLAPSCGTTSGATVALACLVLGYFPEPVTVSWNSGALTSGVHTFPAVLQASGLYSLSSMVTVPSSRWLSDTFTCNVAHPPSNTKVDKTVRKTDHPPGPKPCDCPKCPPPEMLGGPSIFIFPPKPKDTLSISRTPEVTCLVVDLGPDDSDVQITWFVDNTQVYTAKTSPREEQFNSTYRVVSVLPILHQDWLKGKEFKCKVNSKSLPSPIERTISKAKGQPHEPQVYVLPPAQEELSRNKVSVTCLIKSFHPPDIAVEWEITGQPEPENNYRTTPPQLDSDGTYFVYSKLSVDRSHWQRGNTYTCSVAHEALHSHHTQKSLTQSPGK
light: EIQMTQSPSSLSASPGDRVTITCRASENIYSFLAWYQQKPGKVPKLLIYNANTLAEGVPSRFSGSGSGTDFTLTISSLEPEDAATYYCQHHFGTPFTFGSGTKLEIKRSDAQPSVFLFQPSLDELHTGSASIVCILNDFYPKEVNVKWKVDGVVQNKGIQESTTEQNSKDSTYSLSSTLTMSSTEYQSHEKFSCEVTHKSLASTLVKSFQRSECQRE
notes: also called mAb3 ID No. 89
B1 showed a Kd of 22.3 nM.

B2: mAb3 (felinized anti-NGF antibody ZTS-768) S428L and S434P, feline IgG1a (antibody)
heavy: B1 heavy with A434L, S440P
light: B1 light
The molecule B2 came in with a dissociation constant (Kd) of 18.8 nM.

B3: mAb3 (felinized anti-NGF antibody ZTS-768) S428L and S434F, feline IgG1a (antibody)
heavy: B1 heavy with A434L, S440F
light: B1 light
notes: also called mAb3 ID No. 110
The molecule B3 displayed a Kd of 3.38 nM.

B4: mAb3 (felinized anti-NGF antibody ZTS-768) S428L and S434H, feline IgG1a (antibody)
heavy: B1 heavy with A434L, S440H
light: B1 light
notes: also called mAb3 ID No. 109
In the case of B4, binding was put at a Kd of 13.1 nM. This Kd is about 3.9-fold higher than that of the molecule before.

B5: mAb3 (felinized anti-NGF antibody ZTS-768) S428I, feline IgG1a (antibody)
heavy: B1 heavy with A434I
light: B1 light
notes: also called mAb3 ID No. 96
B5: binding was characterised by a dissociation constant (Kd) of 22.2 nM.

B6: mAb3 (felinized anti-NGF antibody ZTS-768) S428N, feline IgG1a (antibody)
heavy: B1 heavy with A434N
light: B1 light
notes: also called mAb3 ID No. 100
In the case of B6, the dissociation constant Kd was found to be 11.2 nM.

B7: mAb3 (felinized anti-NGF antibody ZTS-768) S428G, feline IgG1a (antibody)
heavy: B1 heavy with A434G
light: B1 light
notes: also called mAb3 ID No. 94
Turning to B7, the equilibrium dissociation constant (Kd) is 87.7 nM.

B8: mAb3 (felinized anti-NGF antibody ZTS-768) S428Y and S434F, feline IgG1a (antibody)
heavy: B1 heavy with A434Y, S440F
light: B1 light
notes: also called mAb3 ID No. 115
In the case of B8, binding was characterised by a dissociation constant (Kd) of 2.94 nM.

B9: mAb3 (felinized anti-NGF antibody ZTS-768) S428L, feline IgG1a (antibody)
heavy: B1 heavy with A434L
light: B1 light
notes: also called mAb3 ID No. 98
B9: the Kd is 15.4 nM.

B10: mAb3 (felinized anti-NGF antibody ZTS-768) S428V, feline IgG1a (antibody)
heavy: B1 heavy with A434V
light: B1 light
notes: also called mAb3 ID No. 105
In the case of B10, binding was characterised by a dissociation constant (Kd) of 17.1 nM.

B11: mAb3 (felinized anti-NGF antibody ZTS-768) S428M, feline IgG1a (antibody)
heavy: B1 heavy with A434M
light: B1 light
notes: also called mAb3 ID No. 99
B11 had a Kd of 6.89 nM.

B12: mAb3 (felinized anti-NGF antibody ZTS-768) S428R, feline IgG1a (antibody)
heavy: B1 heavy with A434R
light: B1 light
notes: also called mAb3 ID No. 103
With B12, the dissociation constant Kd is 27.3 nM.

B13: mAb3 (felinized anti-NGF antibody ZTS-768) S428Y and S434P, feline IgG1a (antibody)
heavy: B1 heavy with A434Y, S440P
light: B1 light
With B13, the dissociation constant Kd is 16.6 nM.

B14: mAb3 (felinized anti-NGF antibody ZTS-768) S428F, feline IgG1a (antibody)
heavy: B1 heavy with A434F
light: B1 light
notes: also called mAb3 ID No. 93
The molecule B14 displayed a Kd of 6.75 nM.

B15: mAb3 (felinized anti-NGF antibody ZTS-768) S428H, feline IgG1a (antibody)
heavy: B1 heavy with A434H
light: B1 light
notes: also called mAb3 ID No. 95
B15 showed an equilibrium dissociation constant (Kd) of 53.3 nM.

B16: mAb3 (felinized anti-NGF antibody ZTS-768) S428T, feline IgG1a (antibody)
heavy: B1 heavy with A434T
light: B1 light
notes: also called mAb3 ID No. 104
As for B16, the Kd worked out at 25.8 nM.

B17: mAb3 (felinized anti-NGF antibody ZTS-768) S428K, feline IgG1a (antibody)
heavy: B1 heavy with A434K
light: B1 light
notes: also called mAb3 ID No. 97
As to B17, the Kd was determined as 22.2 nM.

B18: mAb3 (felinized anti-NGF antibody ZTS-768) S428Y, feline IgG1a (antibody)
heavy: B1 heavy with A434Y
light: B1 light
In turn, B18 had a dissociation constant (Kd) of 58.2 nM.

B19: mAb3 (felinized anti-NGF antibody ZTS-768) S428P, feline IgG1a (antibody)
heavy: B1 heavy with A434P
light: B1 light
notes: also called mAb3 ID No. 101
As for B19, the Kd was determined as 17.8 nM.

B20: mAb3 (felinized anti-NGF antibody ZTS-768) S428Q, feline IgG1a (antibody)
heavy: B1 heavy with A434Q
light: B1 light
The molecule B20 displayed a Kd of 71.3 nM.

B21: mAb3 (felinized anti-NGF antibody ZTS-768) S428D, feline IgG1a (antibody)
heavy: B1 heavy with A434D
light: B1 light
notes: also called mAb3 ID No. 91
With B21, the Kd stood at 56.8 nM.

B22: mAb3 (felinized anti-NGF antibody ZTS-768) S428W, feline IgG1a (antibody)
heavy: B1 heavy with A434W
light: B1 light
B22: binding was characterised by a dissociation constant (Kd) of 18.5 nM.

B23: mAb3 (felinized anti-NGF antibody ZTS-768) S428L and S434L, feline IgG1a (antibody)
heavy: B1 heavy with A434L, S440L
light: B1 light
notes: also called mAb3 ID No. 111
In turn, B23 registered an equilibrium dissociation constant (Kd) of 0.312 nM. Against the preceding molecule, the Kd is about 59-fold lower.

B24: mAb3 (felinized anti-NGF antibody ZTS-768) S428E, feline IgG1a (antibody)
heavy: B1 heavy with A434E
light: B1 light
notes: also called mAb3 ID No. 92
With B24, the Kd worked out at 57.4 nM.

B25: mAb3 (felinized anti-NGF antibody ZTS-768) S428Y and S434L, feline IgG1a (antibody)
heavy: B1 heavy with A434Y, S440L
light: B1 light
notes: also called mAb3 ID No. 116
B25 had a Kd of 34.3 nM.

B26: mAb3 (felinized anti-NGF antibody ZTS-768) S428L and S434W, feline IgG1a (antibody)
heavy: B1 heavy with A434L, S440W
light: B1 light
notes: also called mAb3 ID No. 113
As to B26, binding was characterised by a dissociation constant (Kd) of 23.6 nM.

B27: mAb3 (felinized anti-NGF antibody ZTS-768) S428Y and S434H, feline IgG1a (antibody)
heavy: B1 heavy with A434Y, S440H
light: B1 light
notes: also called mAb3 ID No. 114
In turn, B27 displayed an equilibrium dissociation constant (Kd) of 3.25 nM.

B28: mAb3 (felinized anti-NGF antibody ZTS-768) S428Y and S434W, feline IgG1a (antibody)
heavy: B1 heavy with A434Y, S440W
light: B1 light
B28: binding was put at a Kd of 0.812 nM. Against the preceding molecule, the Kd is about 4-fold lower.

B29: mAb3 (felinized anti-NGF antibody ZTS-768) S428C, feline IgG1a (antibody)
heavy: B1 heavy with A434C
light: B1 light
notes: also called mAb3 ID No. 90
As for B29, binding was characterised by a dissociation constant (Kd) of 26.2 nM.

B30: mAb4 (felinized anti-IL31 antibody ZTS-5864) S428A, feline IgG1a (antibody)
heavy: DVQLVESGGDLVKPGGSLRLTCVASGFTFSDYAMSWVRQAPGKGLQWVAGIDSVGSGTSYADSVKGRFTISRDNAKNTLYLQMNSLKTEDTATYYCASGFPGSFEHWGQGTLVTVSSASTTAPSVFPLAPSCGTTSGATVALACLVLGYFPEPVTVSWNSGALTSGVHTFPAVLQASGLYSLSSMVTVPSSRWLSDTFTCNVAHPPSNTKVDKTVRKTDHPPGPKPCDCPKCPPPEMLGGPSIFIFPPKPKDTLSISRTPEVTCLVVDLGPDDSDVQITWFVDNTQVYTAKTSPREEQFNSTYRVVSVLPILHQDWLKGKEFKCKVNSKSLPSPIERTISKAKGQPHEPQVYVLPPAQEELSRNKVSVTCLIKSFHPPDIAVEWEITGQPEPENNYRTTPPQLDSDGTYFVYSKLSVDRSHWQRGNTYTCSVAHEALHSHHTQKSLTQSPGK
VL: QSVLTQPSSVSGTLGQRITISCTGSSSNIGSGYVGWYQQVPGMGPKTVIYYNSDRPSGVPDRFSGSKSGSSGTLTITGLQAEDEADYYCSVYDRTFNAVFGGGT
notes: also called mAb4 ID No. 2
In the case of B30, binding was characterised by a dissociation constant (Kd) of 66.4 nM.

B31: mAb4 (felinized anti-IL31 antibody ZTS-5864) S428D, feline IgG1a (antibody)
heavy: B30 heavy with A433D
VL: B30 VL
notes: also called mAb4 ID No. 4
In turn, B31 showed a Kd of 190 nM.

B32: mAb4 (felinized anti-IL31 antibody ZTS-5864) S428C, feline IgG1a (antibody)
heavy: B30 heavy with A433C
VL: B30 VL
notes: also called mAb4 ID No. 3
Consider B32, for which the equilibrium dissociation constant (Kd) turned out to be 29 nM. Against the preceding molecule, the Kd is about 6.6-fold lower.

B33: mAb4 (felinized anti-IL31 antibody ZTS-5864) S428L and S434L, feline IgG1a (antibody)
heavy: B30 heavy with A433L, S439L
VL: B30 VL
notes: also called mAb4 ID No. 24
For B33, the dissociation constant Kd turned out to be 97.2 nM.

B34: mAb4 (felinized anti-IL31 antibody ZTS-5864) S428L and S434H, feline IgG1a (antibody)
heavy: B30 heavy with A433L, S439H
VL: B30 VL
notes: also called mAb4 ID No. 22
On to B34, for which the Kd amounted to 17.7 nM.

B35: mAb4 (felinized anti-IL31 antibody ZTS-5864) S428L and S434F, feline IgG1a (antibody)
heavy: B30 heavy with A433L, S439F
VL: B30 VL
notes: also called mAb4 ID No. 23
On to B35, for which the dissociation constant Kd was 84.7 nM. Against the preceding molecule, the Kd is about 4.8-fold higher.

In general, Kd refers to the constant that tells how readily two partners part at equilibrium.

The record behind these values is patent publication US20260193335A1 (ZOETIS SERVICES, published 2026).
